# In the supplement of paper PMC11246515:
# ± gives the standard deviation of the averaged measurements.
# Assay: total protein half-life in vivo (active degradation + dilution); higher = more stable protein
# [1] = E. coli NCM3722 delta-clpP delta-lon delta-hslV, growth: N-lim chemostat, doubling time 6 h
# [2] = E. coli NCM3722 delta-clpP, growth: N-lim chemostat, doubling time 6 h
# [3] = E. coli NCM3722 delta-hslV, growth: N-lim chemostat, doubling time 6 h
# [4] = E. coli NCM3722 delta-lon, growth: N-lim chemostat, doubling time 6 h
# [5] = E. coli NCM3722 delta-smpB, growth: N-lim chemostat, doubling time 6 h
# [6] = wild type E. coli NCM3722, growth: C-lim chemostat, doubling time 3 h
# [7] = wild type E. coli NCM3722, growth: C-lim chemostat, doubling time 6 h
# [8] = wild type E. coli NCM3722, growth: C-lim chemostat, doubling time 12 h
# [9] = wild type E. coli NCM3722, growth: N-lim chemostat, doubling time 6 h
# [10] = wild type E. coli NCM3722, growth: N-lim chemostat, doubling time 12 h
# [11] = wild type E. coli NCM3722, growth: P-lim chemostat, doubling time 6 h
# [12] = wild type E. coli NCM3722, growth: P-lim chemostat, doubling time 12 h
Sequence,total protein half-life in vivo [1],total protein half-life in vivo [2],total protein half-life in vivo [3],total protein half-life in vivo [4],total protein half-life in vivo [5],total protein half-life in vivo [6],total protein half-life in vivo [7],total protein half-life in vivo [8],total protein half-life in vivo [9],total protein half-life in vivo [10],total protein half-life in vivo [11],total protein half-life in vivo [12]
MNLQHHFLIAMPALQDPIFRRSVVYICEHNTNGAMGIIVNKPLENLKIEGILEKLKITPEPRDESIRLDKPVMLGGPLAEDRGFILHTPPSNFASSIRISDNTVMTTSRDVLETLGTDKQPSDVLVALGYASWEKGQLEQEILDNAWLTAPADLNILFKTPIADRWREAAKLIGVDILTMPGVAGHA [P0A8W5],4.47 ± 0.45 h,5.88 ± 1.8 h,4.32 ± 0.34 h,2.88 ± 0.18 h,4.027 ± 0.034 h,2.93 ± 0.32 h,5.38 ± 0.81 h,8.21 ± 0.33 h,4.39 ± 0.34 h,6.81 ± 0.54 h,5.075 ± 0.018 h,10.2 ± 2.2 h
MANPTVIKLQDGNVMPQLGLGVWQASNEEVITAIQKALEVGYRSIDTAAAYKNEEGVGKALKNASVNREELFITTKLWNDDHKRPREALLDSLKKLQLDYIDLYLMHWPVPAIDHYVEAWKGMIELQKEGLIKSIGVCNFQIHHLQRLIDETGVTPVINQIELHPLMQQRQLHAWNATHKIQTESWSPLAQGGKGVFDQKVIRDLADKYGKTPAQIVIRWHLDSGLVVIPKSVTPSRIAENFDVWDFRLDKDELGEIAKLDQGKRLGPDPDQFGG,5.16 ± 0.27 h,5.3 ± 0.9 h,5.36 ± 0.068 h,5.7 ± 0.23 h,5.17 ± 0.29 h,3.7 ± 0.23 h,6.23 ± 0.55 h,11.8 ± 1.7 h,4.8 ± 0.42 h,8.91 ± 0.27 h,5.85 ± 0.2 h,13.3 ± 2.8 h
MTDNNTALKKAGLKVTLPRLKILEVLQEPDNHHVSAEDLYKRLIDMGEEIGLATVYRVLNQFDDAGIVTRHNFEGGKSVFELTQQHHHDHLICLDCGKVIEFSDDSIEARQREIAAKHGIRLTNHSLYLYGHCAEGDCREDEHAHEGK [P0A9A9],6.49 ± 0.92 h,5.31 ± 0.6 h,4.58 ± 1.7 h,6.38 ± 0.37 h,3.6 ± 0.55 h,2.35 ± 0.2 h,4.31 ± 0.14 h,8.38 ± 1.9 h,4.58 ± 0.81 h,11.3 ± 3.6 h,5.27 ± 0.16 h,11.5 ± 1.6 h
MGLPPLSKIPLILRPQAWLHRRHYGEVLSPIRWWGRIPFIFYLVSMFVGWLERKRSPLDPVVRSLVSARIAQMCLCEFCVDITSMKVAERTGSSDKLLAVADWRQSPLFSDEERLALEYAEAASVTPPTVDDALRTRLAAHFDAQALTELTALIGLQNLSARFNSAMDIPAQGLCRIPEKRS,6.87 ± 0.28 h,6.4 ± 0.37 h,6.22 ± 0.48 h,6.463 ± 0.023 h,5.67 ± 0.46 h,2.74 ± 0.068 h,5.52 ± 0.59 h,12.1 ± 0.48 h,6 ± 0.46 h,11.3 ± 3.4 h,6.48 ± 0.71 h,13.1 ± 0.5 h
MSYPSLFAPLDLGFTTLKNRVLMGSMHTGLEEYPDGAERLAAFYAERARHGVALIVSGGIAPDLTGVGMEGGAMLNDASQIPHHRTITEAVHQEGGKIALQILHTGRYSYQPHLVAPSALQAPINRFVPHELSHEEILQLIDNFARCAQLAREAGYDGVEVMGSEGYLINEFLTLRTNQRSDQWGGDYRNRMRFAVEVVRAVRERVGNDFIIIYRLSMLDLVEDGGTFAETVELAQAIEAAGATIINTGIGWHEARIPTIATPVPRGAFSWVTRKLKGHVSLPLVTTNRINDPQVADDILSRGDADMVSMARPFLADAELLSKAQSGRADEINTCIGCNQACLDQIFVGKVTSCLVNPRACHETKMPILPAVQKKNLAVVGAGPAGLAFAINAAARGHQVTLFDAHSEIGGQFNIAKQIPGKEEFYETLRYYRRMIEVTGVTLKLNHTVTADQLQAFDETILASGIVPRTPPIDGIDHPKVLSYLDVLRDKAPVGNKVAIIGCGGIGFDTAMYLSQPGESTSQNIAGFCNEWGIDSSLQQAGGLSPQGMQIPRSPRQIVMLQRKASKPGQGLGKTTGWIHRTTLLSRGVKMIPGVSYQKIDDDGLHVVINGETQVLAVDNVVICAGQEPNRALAQPLIDSGKTVHLIGGCDVAMELDARRAIAQGTRLALEI,6.33 ± 2.2 h,3.52 ± 0.043 h,–,–,2.74 ± 0.96 h,2.93 ± 0.18 h,4.94 ± 0.13 h,9.61 ± 2.1 h,–,–,5.18 ± 0.79 h,10.6 ± 0.13 h
MFILWYSASSTFGKDSDIVMGVRAQQKEKTRRSLVEAAFSQLSAERSFASLSLREVAREAGIAPTSFYRHFRDVDELGLTMVDESGLMLRQLMRQARQRIAKGGSVIRTSVSTFMEFIGNNPNAFRLLLRERSGTSAAFRAAVAREIQHFIAELADYLELENHMPRAFTEAQAEAMVTIVFSAGAEALDVGVEQRRQLEERLVLQLRMISKGAYYWYRREQEKTAIIPGNVKDE [P0ACU5],6.31 ± 0.35 h,5.81 ± 0.25 h,6.25 ± 0.1 h,–,5.957 ± 0.021 h,2.73 ± 0.18 h,5.97 ± 0.75 h,11.2 ± 2.1 h,5.71 ± 0.12 h,10.4 ± 1.6 h,5.31 ± 0.57 h,10.88 ± 0.052 h
MLKRVFLSLLVLIGLLLLTVLGLDRWMSWKTAPYIYDELQDLPYRQVGVVLGTAKYYRTGVINQYYRYRIQGAINAYNSGKVNYLLLSGDNALQSYNEPMTMRKDLIAAGVDPSDIVLDYAGFRTLDSIVRTRKVFDTNDFIIITQRFHCERALFIALHMGIQAQCYAVPSPKDMLSVRIREFAARFGALADLYIFKREPRFLGPLVPIPAMHQVPEDAQGYPAVTPEQLLELQKKQGK [P0AFY2],5.75 ± 0.44 h,–,6.88 ± 0.82 h,5.72 ± 0.66 h,6.021 ± 0.027 h,3.1 ± 0.074 h,5.81 ± 0.24 h,10.9 ± 0.74 h,5.85 ± 0.23 h,11.6 ± 1.1 h,5.92 ± 0.26 h,12.3 ± 0.33 h
